Data set [1] deals with T1, OkrAI (Oceanospirillum kriegii, UniProt E2JKI3 1-194).
T1 sequence: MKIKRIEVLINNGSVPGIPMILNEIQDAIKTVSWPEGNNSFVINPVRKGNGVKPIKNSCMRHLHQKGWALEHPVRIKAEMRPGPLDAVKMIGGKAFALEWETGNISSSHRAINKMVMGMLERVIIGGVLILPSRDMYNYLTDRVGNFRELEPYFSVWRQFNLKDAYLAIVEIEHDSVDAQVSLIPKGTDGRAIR
Briefly: fluorescence anisotropy.

A further data set concerns the target T2, BamHI (Bacillus amyloliquefaciens, UniProt P23940 1-213).
T2 sequence: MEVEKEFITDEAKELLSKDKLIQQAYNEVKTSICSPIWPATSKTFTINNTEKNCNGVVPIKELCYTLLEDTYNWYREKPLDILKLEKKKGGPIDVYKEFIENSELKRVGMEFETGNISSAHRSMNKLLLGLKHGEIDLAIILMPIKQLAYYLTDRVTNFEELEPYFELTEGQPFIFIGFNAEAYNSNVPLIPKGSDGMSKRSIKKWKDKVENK
Briefly: fluorescence anisotropy. A general note: Fluorescence polarisation rises when a labelled molecule tumbles more slowly, as on binding a larger partner.

Data set [2] deals with T1, OkrAI. Briefly: X-ray crystallography.

Broadly, the Kd is the constant that tells how readily two partners part at equilibrium. Read a high Kd as weaker binding.

B1: 20-mer cognate duplex (dsDNA)
DNA 1: TATGAGCGGATCCTTACGAG
DNA 2: CTCGTAAGGATCCGCTCATA
Regarding B1, the dissociation constant (Kd) with OkrAI [1] was found to be 12.9 nM; with BamHI, 8.3 nM.

B2: palindromic 12-mer (dsDNA)
DNA 1: TATGGATCCATA
DNA 2: TATGGATCCATA
With B2, the binding result in the data set with OkrAI [2] is “binds”.
